Assay: yeast display, Sf9 membrane polyspecificity reagent, FACS + sequencing; frameworks hold sequencing errors
Method in brief: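 In a synthetic yeast display library (Saccharomyces cerevisiae BJ5465), nanobody expression was induced with galactose for 36–48 hours. FACS gates were set low and high (top ~1%) using anti-HA fluorescence for expression and streptavidin fluorescence for binding of the Sf9 membrane reagent. Each polyreactivity label is drawn from the gate of origin.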

| Sequence | polyreactivity (PSR sort gate) |
| --- | --- |
| QVQLVESGGGLVQAGGSLRLSCAASGIIFAWYAMGWYRQAPGKERELLAAISWSGGSTYYADSVKGRFTISRDNAKNTVYLQMNILKPEDSAVYYCAPFPRRQGKYDYWGKGTQVTVSS | high polyreactivity |
| QVQLVESGGGLVQAGGSLRLSCAASGIIFAWYAMGWYRQAPGKERELVAAINWSGGSTYYADSVKGRFTISRDNAKNTVYLQMNSLKPEDTAVYYCNADFQDRTDDYDYWGQGTQVTVSS | low polyreactivity |
| QVQLVESGGGLVQAGGSLRLSCAASGIIFAWYAMGWYRQAPGKERELVAAISWSGGSTYYADSVKGRFTISRDNAKNTVYLQMNSLKPEDTAVYYCAADSDYGGYDYWGQGTQVTVSS | high polyreactivity |
| QVQLVESGGGLVQAGGSLRLSCAASGIIFAWYAMGWYRQAPGKERELVAAISYSGGTTYYADSVKGRFTISRDNAKNTVYLQMNSLKPEDTAVYYCAARLHHFFTYDYWGQGTQVTVSS | low polyreactivity |
| QVQLVESGGGLVQAGGSLRLSCAASGIIFCDNAMGWYRHAPGKERELVAAITIGGTSTYYADSVKGRFTISRDNAKNTVYLQMNSLKPEDTAVYYCAKTILYDCDYWGQGTQVTVSS | low polyreactivity |
| QVQLVESGGGLVQAGGSLRLSCAASGIIFDCNAMGCYRQAPGKERELVAANTSSTDSTYYADSVKGRFTISRDNAKNTVYLQMNILKPEDTAVYYCAAAYPSKTFDYWGQGTHVTVSS | low polyreactivity |
| QVQLVESGGGLVQAGGSLRLSCAASGIIFDDYAMGWYRQAPGKERELVAAIRSGVSTNYADSVKGRFTISRDNAKNTVYLQMNSLKPEDTAVYYGAARNTAPYFTEYDYWGQGTQVTVSS | low polyreactivity |
| QVQLVESGGGLVQAGGSLRLSCAASGIIFDDYAMGWYRQAPGKERELVAAISVSGGSTYNADSVKGRFTISRDNAKNTVYLQMNSLKPEDTAVYYCAARLIVGRFLRYDYWGQGTQVTVSS | high polyreactivity |
| QVQLVESGGGLVQAGGSLRLSCAASGIIFDDYAMGWYRQAPGKERELVAAITDSGGSTYYADSVKGRFTISRDNAKNTVYLQMNSLKPEVTAVYYCAARTQRRVNRVGYRSNYYYWGQGTQVTVSS | low polyreactivity |
| QVQLVESGGGLVQAGGSLRLSCAASGIIFDEYAMGWYRQAPGKERELVAAITWSGGSTYYADSVKGRFTISRDNAKNTVYLQMNSLKPEDTAVYYCNAVQSDEIAYGDTRLDYWGQGTQVTVSS | low polyreactivity |
| QVQLVESGGGLVQAGGSLRLSCAASGIIFDGNAMGWYRQAPGKERELVASITSDSSTNYADSEKGRFTISRDNAKNTVYLQMNSLKPADTAVYYCAADHWIAPRRDYWGQGTQVTVSS | low polyreactivity |
| QVQLVESGGGLVQAGGSLRLSCAASGIIFDHYAMGWYRKAPGKERELVAAITSGGRTYYADSVKGRFTISRDNAKKTVYLQMNSLKPEDTAVYYCNARFRSSARLAYYYWGQGTQVTVSS | high polyreactivity |
| QVQLVESGGGLVQAGGSLRLSCAASGIIFDLYTKGWYRQAPGKEREFVATINWGGGNTYYADSVKGRFTISRDNAKNTVYLQMNSLKPDDTAVYYCAAAYTWYGYSQAYYYWGQGSQVTVSS | low polyreactivity |
| QVQLVESGGGLVQAGGSLRLSCAASGIIFDSNVMGWYRQAPGKERELVAAISRSGSRTYYADSVKGRFTISRDNSKNTVYLEMNSLKPEDTAVYYCATDSHTADEYEHWGQGTQVTVSS | high polyreactivity |
| QVQLVESGGGLVQAGGSLRLSCAASGIIFDTNDIGWYRLGPGKERELVATITQRGGTTYYADSVKGRFTISRDNATNTVYLQMNSLKPEDTAVYYCDADRRSKYDYWGQGTQVSVSS | low polyreactivity |
| QVQLVESGGGLVQAGGSLRLSCAASGIIFDWYTMGWYRQAPGKERELVAAISWRGGRTYYADSVKGRFTISRDNAKNTVYLQMNSLKPEDTAVYYCAAEAPVQPFYVFNTGIYELDYWGQGTQVTVSS | low polyreactivity |

| Sequence | polyreactivity (PSR sort gate) |
| --- | --- |
| QVQLVESGGGLVQAGGSLRLSCAASGIIFDYNAMGWYRQAPGKERELVAAISGRSGRTYYADSVKGRFTISRDNAKNTVYLQMNSLKPEDTAVYYCAARWYAGGNYWGQGTQVTVSS | high polyreactivity |
| QVQLVESGGGLVQAGGSLRLSCAASGIIFELYAMGWYRQAPGKERELVAAISISGDSTYYADSVTGRFTISRDTAKNTVYLQMKSLKPEDTAVYYCAKQSYRWPYLVTKYYEYDYWGQGTQVTVSS | low polyreactivity |
| QVQLVESGGGLVQAGGSLRLSCAASGIIFENYAMGWYRQAPGKERELVAAINKRGSRTYFADSVTGRFTISRDNAKNTVYLQMNSLKPEDTAVYYCNAVNPYYAPTDRRVGYDYWGQGTQVTVSS | high polyreactivity |
| QVQLVESGGGLVQAGGSLRLSCAASGIIFERYAMGWYRQAPGKERELVATISWSGGSTRYADSVKGRFTISRDNAKNTVYLQMNSLKPEDTAVYYCAAPSYFRMGYWGQGTQVTVSS | low polyreactivity |
| QVQLVESGGGLVQAGGSLRLSCAASGIIFESYAMGSYRQAPGKEREFVAAISSRGGSTYYADSVKGRFTISRDNAKNTVYLQMNSLKPEDTAVYYCAARGYRRTFDYREYDSWGQGTQVTVSS | low polyreactivity |
| QVQLVESGGGLVQAGGSLRLSCAASGIIFESYAMGWYRPAPGKERELVAAISWDGGSTYYADSVKGRFTISRDNAKNTVYLQMNSQKPEDTAVYYCAAESYGIYDGYDYWGQGTQVTVSS | high polyreactivity |
| QVQLVESGGGLVQAGGSLRLSCAASGIIFEYYAMGWYIQAPGKERELVAAISSDTSTNYADSVKGRFTISRDNAKNTVYLQMNSLKPEDTAVYYCNADAYYDTYGIGVGTDYDYWGQGTQVTVSS | low polyreactivity |
| QVQLVESGGGLVQAGGSLRLSCAASGIIFEYYAMGWYRQAPGKERELVAAITWNGGRTYYADSVKGRFTISRDNAKNTVYLQMNSLKPEDTAVYYCAARKPRSGGPFDYWGQGTQVTVSS | high polyreactivity |
| QVQLVESGGGLVQAGGSLRLSCAASGIIFFHYAMGWYRQAPGKERELVAAITWSGGSTYYADSVKGRFTISRDNAKNTVYLKMNSLKPEDSAVYYCNAVLHRRLYDYWGQGPQVTVSS | high polyreactivity |
| QVQLVESGGGLVQAGGSLRLSCAASGIIFFRYAMGWYRQAPGKERELVAAISLSGGRTYYADSVKGRFTISRDNANNTVYLQMNSVKPEDTAVYYCNTLHRYSSQRYDYWGQGTQVTVSS | high polyreactivity |
| QVQLVESGGGLVQAGGSLRLSCAASGIIFFYNAMGWYRQAPGKERELVAAIRRGGRTNYADSVKGRFTISRDNAKNTVYLQMNSLKPEDTAVYYCNKDFYPGDYWGQGTQVTVSS | low polyreactivity |
| QVQLVESGGGLVQAGGSLRLSCAASGIIFFYNAMGWYRQAPGKERELVAAITIGGITYADSVKGRFTISRDNAKNTVYLQMNSLNPEDTAVYYCNKRTDSDSGHWEHDYWGQGTQVTVSS | low polyreactivity |
| QVQLVESGGGLVQAGGSLRLSCAASGIIFFYYAMGWYRQAPGKERELVAANSSDGSTYYADSVKGRFTISRDNAKNTVYLQMNSLKPEDTAVYYCAVDHYSARLLARYDYWGQGTQVTVSS | low polyreactivity |
| QVQLVESGGGLVQAGGSLRLSCAASGIIFFYYAMGWYRQAPGKERELVASISSGGSTNYADSVKGRFTISRDNAKNTVYLQMNSLKPEDTALYYCAARRYYVRIQGYKLDYWGHGTQVTVSS | low polyreactivity |
| QVQLVESGGGLVQAGGSLRLSCAASGIIFGDNAMGLYRQEPGKERELVATISSSASTNYADSVKGRFTISRDNAKNTVYLQMNSLKPEDTAVYYCAADVYSPPNYDYWGQGTQVTVSS | low polyreactivity |
| QVQLVESGGGLVQAGGSLRLSCAASGIIFGFNTMGWYRQAPGKERELVAAINGSDGSTYADSVKGRFTISRDNAKNTVYLLMNSLKPEDTAVYYCAARYGSRKEYTYADMDYWGQGTQVTVSS | low polyreactivity |

From the nanobody polyreactivity screen of Harvey et al. (2022)
